One molecule from patent publication US20190389958A1 (MSM PROTEIN TECHNOLOGIES, published 2019) can be followed below.

Test [1] deals with T1, human CXCR4 (human, UniProt P61073 1-352). The test can be described thus: cell-based or functional assay.
Test [2] addresses T1, human CXCR4. The test can be described thus: cell-based or functional assay. This is another data set of the same source.
The target of test [3] is T1, human CXCR4. The test can be described thus: flow cytometry, IgG 10 µg/mL, CXCR4-expressing Ramos (RA1) cells. Here is the method: Binding of test IgGs to CXCR4-expressing human lymphoma cells (Ramos; RA1, ATCC® CRL-1596™) was measured by fluorescent flow cytometry-based assay. Tumor cell staining was conducted as follows: human Fcγ receptors of RA1 cells were saturated by incubation at 4° C. for 30 minutes in PBS containing 2% human serum and 0.5 mM EDTA. Cells were then incubated at 4° C. for one hour with test IgGs or a human isotypic IgG1 kappa control (Coger Sarl, Paris, France) (both antibody types at 10 μg/mL). The cells were washed with PBS and further incubated for one hour at 4° C. with a goat F(ab′)2 fragment anti-human IgG (H+L)-PE (Beckman Coulter). The cells were washed twice with PBS and fixed with 0.5% formaldehyde in PBS for analysis by flow cytometry. The data were acquired using an eleven-color flow cytometer (LSRII, BD Biosciences), and the analyses were performed with the FlowJo flow cytometry analysis software (Tree Star Inc., Ashland, Oreg.). The living cells were selected using the side scatter (SSC) and the forward scatter (FSC); 10,000 events were acquired for each analysis. MFI values were recorded using the PE channel.
On the technique in general: In flow cytometry, cells or beads pass a laser one at a time.

In test [4] the target is T1, human CXCR4. The test can be described thus: flow cytometry on Cf2-Th cells transfected with human CXCR4, IgG1 format. The method, then: A typical protocol for the fluorescent flow cytometry-based assay was as follows. Ten microliter of a purified test IgG solution or buffer as a control were added to 10 microliter of a suspension containing approximately 30,000 Cf2-Th cells transfected to express human CXCR4. After incubation on ice for 40 min, cells were washed with FACS buffer (phosphate-buffered saline (PBS), pH7.4; 2% fetal calf serum, 0.1% sodium azide) to remove unbound antibodies. Ten microliter of a solution of phycoerythrin (PE)-conjugated mouse anti-human Fc monoclonal antibody (1/20 dilution; catalog number 12-4998-82, eBioscience Inc., San Diego, Calif.) were then added to the cells, and, after a 30-min incubation on ice, cells were washed twice and then formalin-fixed (FIX buffer: PBS, pH7.4; 0.5% formaldehyde). Fixed samples were analysed by fluorescent flow cytometry using a Guava-PCA96 instrument (EMD Millipore Chemicals, Merck KGaA, Darmstadt, Germany).

T1 sequence (P61073 whole entry): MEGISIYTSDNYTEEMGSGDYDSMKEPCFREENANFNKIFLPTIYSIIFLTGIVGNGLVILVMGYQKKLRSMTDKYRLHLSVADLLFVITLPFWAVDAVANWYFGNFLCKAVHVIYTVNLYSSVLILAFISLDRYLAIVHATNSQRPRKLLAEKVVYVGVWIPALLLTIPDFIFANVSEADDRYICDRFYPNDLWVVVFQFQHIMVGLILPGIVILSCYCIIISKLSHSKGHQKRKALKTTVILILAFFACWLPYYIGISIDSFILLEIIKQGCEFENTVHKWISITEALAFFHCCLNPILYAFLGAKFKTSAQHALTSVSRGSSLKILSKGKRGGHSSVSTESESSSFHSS

B1: V62.1-R108H-m43-m38 (antibody, human IgG1, V domains shown)
VH: EVQLLESGGGLVQPGGSLRLSCAASGFTFSSYAMSWVRQAPGKGLEWVSAISGSGGGSTRYADSVKGRFTISRDNSKNTLYLQMNSLRAEDTAVYYCARQGKTRVYGYHWHGYGSTHALDYWGQGTLVTVSS
VL: EIVLTQSPGTLSLSPGERATLSCRASQSVSSSYLAWYQQKPGQAPRLLIYGASSRATGIPDRFSGSGSGTDFTLTISRLEPEDFAVYYCQQWSSDSVTFGQGTKVEIKR
notes: Tested as an IgG (human IgG1 format); also called V62.1-H-m43-m38; IgG1 62.1-R108H-m43-m38
Regarding B1, the “IC50 (nM), inhibition of SDF-1alpha-induced calcium flux” value in the test with human CXCR4 [1] was 3.8 nM. In addition, in the test with human CXCR4 [2], the “% Inhibition of SDF-1alpha-induced chemotaxis of U937 cells (IgG at 100 nM)” value is 77%. The same molecule displayed an MFI in the test with human CXCR4 [3] of 488. Further, the EC50 in the test with human CXCR4 [4] is under 10 nM.

For orientation: EC50 means the concentration needed to bring the measured effect to its halfway point. A low value points to higher potency in that assay.
